Results as given in article PMC7082060, “Structure of mouse coronavirus spike protein complexed with receptor reveals mechanism for viral entry” (PLoS Pathogens, 2020).

B1: MHV spike ectodomain (S-e), strain A59 (domain or fragment)
chain: YIGDFRCIQLVNSNGANVSAPSISTETVEVSQGLGTYYVLDRVYLNATLLLTGYYPVDGSKFRNLALRGTNSVSLSWFQPPYLNQFNDGIFAKVQNLKTSTPSGATAYFPTIVIGSLFGYTSYTVVIEPYNGVIMASVCQYTICQLPYTDCKPNTNGNKLIGFWHTDVKPPICVLKRNFTLNVNADAFYFHFYQHGGTFYAYYADKPSATTFLFSVYIGDILTQYYVLPFICNPTAGSTFAPRYWVTPLVKRQYLFNFNQKGVITSAVDCASSYTSEIKCKTQSMLPSTGVYELSGYTVQPVGVVYRRVANLPACNIEEWLTARSVPSPLNWERKTFQNCNFNLSSLLRYVQAESLFCNNIDASKVYGRCFGSISVDKFAVPRSRQVDLQLGNSGFLQTANYKIDTAATSCQLHYTLPKNNVTINNHNPSSWNRRYGFNDAGVFGKNQHDVVYAQQCFTVRSSYCPCAQPDIVSPCTTQTKPKSAFVNVGDHCEGLGVLEDNCGNADPHKGCICANNSFIGWSHDTCLVNDRCQIFANILLNGINSGTTCSTDLQLPNTEVVTGICVKYDLYGITGQGVFKEVKADYYNSWQTLLYDVNGNLNGFRDLTTNKTYTIRSCYSGRVSAAFHKDAPEPALLYRNINCSYVFSNNISREENPLNYFDSYLGCVVNADNRTDEALPNCDLRMGAGLCVDYSKSRRAHRSVSTGYRLTTFEPYTPMLVNDSVQSVDGLYEMQIPTNFTIGHHEEFIQTRSPKVTIDCAAFVCGDNTACRQQLVEYGSFCVNVNAILNEVNNLLDNMQLQVASALMQGVTISSRLPDGISGPIDDINFSPLLGCIGSTCAEDGNGPSAIRGRSAIEDLLFDKVKLSDVGFVEAYNNCTGGQEVRDLLCVQSFNGIKVLPPVLSESQISGYTTGATAAAMFPPWSAAAGVPFSLSVQYRINGLGVTMNVLSENQKMIASAFNNALGAIQDGFDATNSALGKIQSVVNANAEALNNLLNQLSNRFGAISASLQEILTRLEAVEAKAQIDRLINGRLTALNAYISKQLSDSTLIKVSAAQAIEKVNECVKSQTTRINFCGNGNHILSLVQNAPYGLYFIHFSYVPISFTTANVSPGLCISGDRGLAPKAGYFVQDDGEWKFTGSSYYYPEPITDKNSVIMSSCAVNYTKAPEVFLNTSIPNPPDFKEELDKWFKNQTSIAPDLSLDFEKLNVT
notes: also called MHV S-e; recombinant MHV S-e; not shown: GCN4 trimerization tag, C-terminal, kept; His6, C-terminal, kept

Tests used:
[1] = target: MHV spike ectodomain (S-e), strain A59 (mouse hepatitis coronavirus (MHV), strain A59) (UniProt P11224)
[2] = target: MHV spike ectodomain (S-e), strain A59 (mouse hepatitis coronavirus (MHV), strain A59) (UniProt P11224); assay: cryo-EM structure
cryo-EM structure = target: the molecule itself; assay: cryo-EM structure

Molecule	negative-stain EM: share of S-e molecules in the post-fusion conformation after high concentration of trypsin with CEACAM1a (11.75% without CEACAM1a) [1]	stoichiometry N (CEACAM1a molecules per S-e trimer) [2]	stoichiometry N (cryo-EM structure)
Mouse CEACAM1a ectodomain (D1-D4), C-terminal His6 tag (receptor)	50.9%	3	–
B1	–	–	3
